Experimental findings from US20170183404A1 (VIB VZW, published 2017) are described below.

To fix the notation:
B1: XA8643 (VHH)
VHH: QVQLVESGGGLVRPGGSLRLSCVDSERTSYPMGWFRRAPGKEREFVASITWSGIDPTYADSVADRFTISRDVANNTLYLQMNSLKHEDTAVYYCAARAPVGQSSSPYDYDYWGQGTQVTVSS
notes: Tested as periplasmic extract; also called 598G11; X8643
B2: XA8641 (VHH)
VHH: QVQLVESGGGLVRPGGSLRLSCVDSGRTSYPMGWFRRAPGKEREFVASITWSGIDPTYADSVADRFTISRDVANNTLYLQMNSLKHEDTAVYYCAARAPVGQSSSPYDYDYWGQGTQVTVSS
notes: Tested as periplasmic extract; also called 598A2; Profile I VHH
B3: XA8639 (VHH)
VHH: QVQLVESGGGLVRPGGSLRLSCVDSERTSYPMGWFRRAPGKEREFVASITWSGIDPTYADSVADRFTTSRDVANNTLYLQMNSLKHEDTAVYYCAARAPVGQSSSPYDYDYWGQGTQVTVSS
notes: also called 598A7; Nb39
B4: XA8635 (VHH)
VHH: QVQLVESGGGLVQAGGSLRLSCAASGSISSISTMGWYRQAPGNERELVAAITSGGSTNYADSVKGRFTISRDNAKNTVYLQMNSLKPEDTAVYYCNFKYYSGSYFYKSEYDYWGQGTQVTVSS
notes: Tested as periplasmic extract and as purified protein; also called 601H10; monovalent XA8635
B5: XA8727 (VHH)
VHH: QVQLVESGGGLVQAGGSLRLSCAASGFTFDDYAIAWFRQAPGKEREGVSCISSSDGSTYYADSVKGRFTISNDNAKNTVYLQMNSLKPEDTAVYYCAADLSRSCGRGYRYLEVWGQGTQVTVSS
notes: Tested as periplasmic extract; also called 599D2; Profile III VHH

In the first test the target is T1, truncDelta mMor1 reconstituted in liposomes (mouse, UniProt P42866 52-358).
T1 construct: The assayed protein lacks the N-terminal part before the TEV site and the C-terminal part after the 3C site; It was purified, doped with Dmt1-Dalda and reconstituted in DOPC/CHS/lipid A vesicles; also called truncDelta mMor1 liposome; recombinant mMOR1 reconstituted in liposomes
T1 sequence (P42866 52-358, tags or fused parts left off): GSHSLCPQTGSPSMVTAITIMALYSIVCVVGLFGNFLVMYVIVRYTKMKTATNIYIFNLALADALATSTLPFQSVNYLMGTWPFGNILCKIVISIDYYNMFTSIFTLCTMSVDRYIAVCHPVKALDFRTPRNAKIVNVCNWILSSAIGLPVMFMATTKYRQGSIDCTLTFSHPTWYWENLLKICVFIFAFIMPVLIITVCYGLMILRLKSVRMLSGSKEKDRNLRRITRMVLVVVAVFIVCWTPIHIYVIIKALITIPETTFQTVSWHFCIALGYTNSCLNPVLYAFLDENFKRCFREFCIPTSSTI
Put plainly: ELISA (OD405), five-fold diluted periplasm, 10 µM Dmt1-Dalda; reference: mock liposomes. As for the experimental part:
DNPP (Sigma, cat nr 71768) was used to develop the colorimetric signal. Absorbance was measured at OD405 nm and results are depicted in FIG. 6. […] All VHHs tested confirm specific binding to truncDelta mMor1 reconstituted in liposomes. As truncDelta mMor1 is truncated at its N- and C-terminus, most likely these VHHs interact with extracellular or intracellular Mor1 conformational epitopes.
In general terms: ELISA stands for enzyme-linked immunosorbent assay.
B1: the “absorbance on truncDelta mMor1 liposomes relative to mock liposomes” value is ≥ 3 fold.

As to B2, the “absorbance on truncDelta mMor1 liposomes relative to mock liposomes” value is ≥ 3 fold.

As for B3, the “absorbance on truncDelta mMor1 liposomes relative to mock liposomes” value was ≥ 3 fold.

With B4, the “absorbance on truncDelta mMor1 liposomes relative to mock liposomes” value is ≥ 3 fold.

For B5, the “absorbance on truncDelta mMor1 liposomes relative to mock liposomes” value is ≥ 3 fold.

The target of a further test is T2, wild-type human Mor1 (human mu-type opioid receptor) (human, UniProt P35372 1-400).
T2 construct: Used as CHO membranes (Perkin Elmer ES-542-M400UA) in the radioligand assay and on transfected CHO cells in flow cytometry; also called WT hMor1/CHO; hMor1/CHO
T2 sequence (P35372 whole entry): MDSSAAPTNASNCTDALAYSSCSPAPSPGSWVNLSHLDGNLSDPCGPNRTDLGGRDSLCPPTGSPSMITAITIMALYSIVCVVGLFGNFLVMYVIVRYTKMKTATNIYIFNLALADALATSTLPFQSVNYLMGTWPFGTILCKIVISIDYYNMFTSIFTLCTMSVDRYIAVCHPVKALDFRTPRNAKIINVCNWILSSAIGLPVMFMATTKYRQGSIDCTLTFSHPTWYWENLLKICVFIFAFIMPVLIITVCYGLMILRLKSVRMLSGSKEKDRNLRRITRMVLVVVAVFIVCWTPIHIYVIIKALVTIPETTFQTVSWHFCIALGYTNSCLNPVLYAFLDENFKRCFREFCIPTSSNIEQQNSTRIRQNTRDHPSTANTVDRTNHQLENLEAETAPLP
Kind of test: displacement of 1 nM [3H]-diprenorphine from WT hMor1/CHO membranes by a concentration range of XA8635. As for the experimental part:
The mixture was incubated for 1 hour at RT and after washing, filter bound radioligand was measured.
Consider B4, for which the binding result is “binds”.
